Patent US11491206B1, “Compositions and methods for the treatment of trail-resistant cancer” (Duke University, priority 2018, dated 2022)
“And” between values parts separate entries of the source, which are not always exact repeats. Identical values can stand only once.

Tests used:
mouse death receptor = mouse death receptor (Mus musculus, UniProt Q9QZM4); details: previous studies; cited from earlier work
CRC12x = experiment: Single-agent cytotoxicity in patient-derived CRC12x; format: cell-based, human
Method: (§1) For single-agent cytotoxicity evaluation, DRA and ELP-DRA fusion proteins were tested in vitro using a colorimetric formazan assay (MTT) as follows. […] The cells were then treated with 10 μL additional media containing a serial dilution of the drug(s) of interest. All treatments were done in triplicate. […] The inhibition of cell viability was determined using measurements of the absorbance at 490 nm, which is the absorbance maximum of the formazan product. The dose-response curves were generated by plotting inhibition as a function of compound concentration.

CRC247 = experiment: Single-agent cytotoxicity in patient-derived CRC247; format: cell-based, human
Method: as §1

[1] = tested on: HCT116, HCT15, Colo205, DLD-1, and Lovo; experiment: Single-agent cytotoxicity (MTT) in TRAIL-sensitive CRC cell lines; format: cell-based, human
Method: as §1

[2] = in vivo; cited from earlier work
HT29 cells = experiment: Single-agent cytotoxicity (MTT) in HT29; format: cell-based, human
Method: as §1

RKO cells [3] = experiment: Flow cytometry Annexin V apoptosis quantification in RKO; format: cell-based, human; details: for % positive Annexin V+: single replicate, listed as SA
Method: Flow Cytometry for Annexin-V Apoptosis Quantification. Cells were seeded in six-well plates overnight. The next day, cells were treated with the indicated amount of drug(s) or vehicle control (DMSO). Incubation time was 15 h for etoposide or 48 h for DRA alone, or DRA with sensitizers. To prepare samples for flow cytometry, each well of cells was washed twice with ice-cold PBS and resuspended in 1× annexin V binding buffer (10 mM HEPES, 140 mM NaCl, 2.5 mM CaCl2, pH 7.4) BD Biosciences). Allophycocyanin (APC)-conjugated Annexin V was used to measure surface exposure of phosphatidylserine and 7-aminoactinomycin D (7-AAD) was used as a viability probe (BD Biosciences). Cell samples were analyzed at 20,000 counts/sample using BD FACSVantage SE.

RKO cells [4] = experiment: Single-agent cytotoxicity (MTT) in RKO; format: cell-based, human
Method: as §1

T84 = experiment: Single-agent cytotoxicity (MTT) in T84; format: cell-based, human
Method: as §1

CRC119 = experiment: Single-agent cytotoxicity in patient-derived CRC119; format: cell-based, human; details: CRC119s
Method: as §1

Sequence of mouse death receptor (Q9QZM4 53-381): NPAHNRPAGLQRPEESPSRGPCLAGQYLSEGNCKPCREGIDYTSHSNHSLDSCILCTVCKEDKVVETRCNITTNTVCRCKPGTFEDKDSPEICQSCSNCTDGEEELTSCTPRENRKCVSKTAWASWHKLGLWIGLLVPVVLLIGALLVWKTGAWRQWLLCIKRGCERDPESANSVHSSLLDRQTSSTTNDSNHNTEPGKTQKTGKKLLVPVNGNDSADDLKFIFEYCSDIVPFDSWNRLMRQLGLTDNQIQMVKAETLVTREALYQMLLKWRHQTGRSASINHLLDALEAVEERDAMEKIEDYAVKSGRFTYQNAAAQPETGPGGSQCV

Row | Molecule | interaction with mouse death receptor (mouse death receptor) | EC50 (CRC12x) [pM] | cytotoxicity (CRC247) | increase in potency of DRA compared to TRAIL (T/D fold, EC50-TRAIL/EC50-DRA) ([1]; TRAIL-sensitive cell lines) | EC50 ([1]; all tested TRAIL-sensitive cell lines) | half-life [2] | cytotoxicity (HT29 cells) | Average % positive Annexin V+ (RKO cells [3]; 0.5 pM SA) [%] | % positive Annexin V+ (RKO cells [3]; 0.5 pM SA) | Average % positive Annexin V+ (RKO cells [3]; 1 pM SA) [%] | % positive Annexin V+ (RKO cells [3]; 1 pM SA) | EC50 (RKO cells [4]) [pM] | cytotoxicity (T84) | EC50 (CRC119) [pM] | induction of cell death ([1]; sensitive cell lines)
1 | DRA: hexameric protein of Tn3 fibronectin type III domains (SEQ ID NO: 1) binding DR5, joined by glycine-serine linkers (protein) GAIEVKDVTDTTALITWAKPWVDPPPLWGCELTYGIKDVPGDRTTIDLQQKHTAYSIGNLKPDTEYEVSLICFDPYGMRSKPAKETFTTGGGGSGGGGSGGGGSGAIEVKDVTDTTALITWAKPWVDPPPLWGCELTYGIKDVPGDRTTIDLQQKHTAYSIGNLKPDTEYEVSLICFDPYGMRSKPAKETFTTGGGGSGGGGSGGGGSGAIEVKDVTDTTALITWAKPWVDPPPLWGCELTYGIKDVPGDRTTIDLQQKHTAYSIGNLKPDTEYEVSLICFDPYGMRSKPAKETFTTGGGGSGGGGSGGGGSGAIEVKDVTDTTALITWAKPWVDPPPLWGCELTYGIKDVPGDRTTIDLQQKHTAYSIGNLKPDTEYEVSLICFDPYGMRSKPAKETFTTGGGGSGGGGSGGGGSGAIEVKDVTDTTALITWAKPWVDPPPLWGCELTYGIKDVPGDRTTIDLQQKHTAYSIGNLKPDTEYEVSLICFDPYGMRSKPAKETFTTGGGGSGGGGSGGGGSGAIEVKDVTDTTALITWAKPWVDPPPLWGCELTYGIKDVPGDRTTIDLQQKHTAYSIGNLKPDTEYEVSLICFDPYGMRSKPAKETFTTGGGGSGGGGSGGGGSHHHHHHHH | no interaction | 9.8 | highly resistant | 70-1700 times | picomolar range | approximately 36 min | induces cytotoxicity | 4.90 | 5.32% and 5.86% and 3.53% | 6.01 | 6.97% and 5.22% and 5.85% | > 100000 | induces cytotoxicity | 26.1 | 
2 | DRA monomer: single Tn3 type III fibronectin domain engineered to bind DR5 (protein) GAIEVKDVTDTTALITWAKPWVDPPPLWGCELTYGIKDVPGDRTTIDLQQKHTAYSIGNLKPDTEYEVSLICFDPYGMRSKPAKETFTT |  |  |  |  |  |  |  |  |  |  |  |  |  |  | do not induce cell death
